Patent publication US20260242735A1 (UNIVERSIT T BASEL, published 2026)

How the values were obtained:
Assay in all cases: BLI (Octet R8), avidity format: biotinylated CD33 on streptavidin sensor, Refmab #1 as analyte at 300 or 500 nM;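 note: sensorgrams recorded with a 300 s analyte association phase followed by a 900 s dissociation phase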
[1] = biological target: CD33 variant F21Q (recombinant, biotinylated) (human, UniProt P20138 22-259, biotinylated with EZ-Link Sulfo-NHS-LC-Biotin (sites not given))
[2] = biological target: CD33 variant W22K (recombinant, biotinylated) (human, UniProt P20138 18-259, biotinylated with EZ-Link Sulfo-NHS-LC-Biotin (sites not given))
[3] = biological target: CD33 variant N20V (recombinant, biotinylated) (human, UniProt P20138 21-259, biotinylated with EZ-Link Sulfo-NHS-LC-Biotin (sites not given))
[4] = biological target: CD33 variant W22T (recombinant, biotinylated) (human, UniProt P20138 18-259, biotinylated with EZ-Link Sulfo-NHS-LC-Biotin (sites not given))
[5] = biological target: CD33 variant F21L (recombinant, biotinylated) (human, UniProt P20138 22-259, biotinylated with EZ-Link Sulfo-NHS-LC-Biotin (sites not given))
[6] = biological target: CD33 variant N20G (recombinant, biotinylated) (human, UniProt P20138 21-259, biotinylated with EZ-Link Sulfo-NHS-LC-Biotin (sites not given))
[7] = biological target: CD33 variant N20E (recombinant, biotinylated) (human, UniProt P20138 21-259, biotinylated with EZ-Link Sulfo-NHS-LC-Biotin (sites not given))
[8] = biological target: CD33 variant W22E (recombinant, biotinylated) (human, UniProt P20138 18-259, biotinylated with EZ-Link Sulfo-NHS-LC-Biotin (sites not given))
[9] = biological target: T1, CD33 wild type (recombinant, biotinylated) (human, UniProt P20138 18-259, biotinylated with EZ-Link Sulfo-NHS-LC-Biotin (sites not given))
T1 construct: also called WT; CD33 wt

[10] = biological target: CD33 variant F21I (recombinant, biotinylated) (human, UniProt P20138 22-259, biotinylated with EZ-Link Sulfo-NHS-LC-Biotin (sites not given))
[11] = biological target: CD33 variant N20K (recombinant, biotinylated) (human, UniProt P20138 21-259, biotinylated with EZ-Link Sulfo-NHS-LC-Biotin (sites not given))
[12] = biological target: CD33 variant F21V (recombinant, biotinylated) (human, UniProt P20138 22-259, biotinylated with EZ-Link Sulfo-NHS-LC-Biotin (sites not given))
[13] = biological target: CD33 variant W22R (recombinant, biotinylated) (human, UniProt P20138 18-259, biotinylated with EZ-Link Sulfo-NHS-LC-Biotin (sites not given))
[14] = biological target: CD33 variant F21M (recombinant, biotinylated) (human, UniProt P20138 22-259, biotinylated with EZ-Link Sulfo-NHS-LC-Biotin (sites not given))
[15] = biological target: CD33 variant Y50D (recombinant, biotinylated) (human, UniProt P20138 18-259, biotinylated with EZ-Link Sulfo-NHS-LC-Biotin (sites not given))
[16] = biological target: CD33 variant W22D (recombinant, biotinylated) (human, UniProt P20138 18-259, biotinylated with EZ-Link Sulfo-NHS-LC-Biotin (sites not given))
[17] = biological target: CD33 variant F21S (recombinant, biotinylated) (human, UniProt P20138 22-259, biotinylated with EZ-Link Sulfo-NHS-LC-Biotin (sites not given))
[18] = biological target: CD33 variant F21H (recombinant, biotinylated) (human, UniProt P20138 22-259, biotinylated with EZ-Link Sulfo-NHS-LC-Biotin (sites not given))
[19] = biological target: CD33 variant Y50R (recombinant, biotinylated) (human, UniProt P20138 18-259, biotinylated with EZ-Link Sulfo-NHS-LC-Biotin (sites not given))
[20] = biological target: CD33 variant F44P (recombinant, biotinylated) (human, UniProt P20138 18-259, biotinylated with EZ-Link Sulfo-NHS-LC-Biotin (sites not given))
[21] = biological target: CD33 variant F21N (recombinant, biotinylated) (human, UniProt P20138 22-259, biotinylated with EZ-Link Sulfo-NHS-LC-Biotin (sites not given))
[22] = biological target: CD33 variant N20H (recombinant, biotinylated) (human, UniProt P20138 21-259, biotinylated with EZ-Link Sulfo-NHS-LC-Biotin (sites not given))
[23] = biological target: CD33 double variant Y50H_H49H (recombinant, biotinylated) (human, UniProt P20138 18-259, biotinylated with EZ-Link Sulfo-NHS-LC-Biotin (sites not given))
[24] = biological target: CD33 variant Y50K (recombinant, biotinylated) (human, UniProt P20138 18-259, biotinylated with EZ-Link Sulfo-NHS-LC-Biotin (sites not given))
Chain of CD33 variant Y50K (recombinant, biotinylated) (P20138 other isoform, or with tags, fused parts or gaps Y50K Y50K): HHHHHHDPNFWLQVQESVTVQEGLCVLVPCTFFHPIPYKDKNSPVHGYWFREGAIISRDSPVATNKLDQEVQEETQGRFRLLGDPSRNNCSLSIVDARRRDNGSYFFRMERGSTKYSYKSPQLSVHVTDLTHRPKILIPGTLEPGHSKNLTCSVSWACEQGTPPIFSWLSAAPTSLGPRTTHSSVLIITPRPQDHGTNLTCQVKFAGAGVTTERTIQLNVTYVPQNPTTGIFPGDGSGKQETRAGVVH

Chain of CD33 variant N20V (recombinant, biotinylated) (P20138 other isoform, or with tags, fused parts or gaps N20V N20V): as the sequence (P20138 other isoform, or with tags, fused parts or gaps Y50K Y50K) above, with N9V, K39Y counted along it
Chain of CD33 variant Y50R (recombinant, biotinylated) (P20138 other isoform, or with tags, fused parts or gaps Y50R Y50R): as the sequence (P20138 other isoform, or with tags, fused parts or gaps Y50K Y50K) above, with K39R counted along it
Chain of CD33 variant F21N (recombinant, biotinylated) (P20138 other isoform, or with tags, fused parts or gaps F21N F21N): as the sequence (P20138 other isoform, or with tags, fused parts or gaps Y50K Y50K) above, with F10N, K39Y counted along it
Chain of CD33 variant W22K (recombinant, biotinylated) (P20138 other isoform, or with tags, fused parts or gaps W22K W22K): as the sequence (P20138 other isoform, or with tags, fused parts or gaps Y50K Y50K) above, with W11K, K39Y counted along it
Chain of CD33 variant F21Q (recombinant, biotinylated) (P20138 other isoform, or with tags, fused parts or gaps F21Q F21Q): as the sequence (P20138 other isoform, or with tags, fused parts or gaps Y50K Y50K) above, with F10Q, K39Y counted along it
Chain of CD33 variant W22R (recombinant, biotinylated) (P20138 other isoform, or with tags, fused parts or gaps W22R W22R): as the sequence (P20138 other isoform, or with tags, fused parts or gaps Y50K Y50K) above, with W11R, K39Y counted along it
Chain of CD33 variant N20G (recombinant, biotinylated) (P20138 other isoform, or with tags, fused parts or gaps N20G N20G): as the sequence (P20138 other isoform, or with tags, fused parts or gaps Y50K Y50K) above, with N9G, K39Y counted along it
Chain of CD33 variant F21S (recombinant, biotinylated) (P20138 other isoform, or with tags, fused parts or gaps F21S F21S): as the sequence (P20138 other isoform, or with tags, fused parts or gaps Y50K Y50K) above, with F10S, K39Y counted along it
Chain of CD33 variant N20K (recombinant, biotinylated) (P20138 other isoform, or with tags, fused parts or gaps N20K N20K): as the sequence (P20138 other isoform, or with tags, fused parts or gaps Y50K Y50K) above, with N9K, K39Y counted along it
T1 sequence (P20138 other isoform, or with tags, fused parts or gaps): as the sequence (P20138 other isoform, or with tags, fused parts or gaps Y50K Y50K) above, with K39Y counted along it
Chain of CD33 variant W22D (recombinant, biotinylated) (P20138 other isoform, or with tags, fused parts or gaps W22D W22D): as the sequence (P20138 other isoform, or with tags, fused parts or gaps Y50K Y50K) above, with W11D, K39Y counted along it
Chain of CD33 variant W22T (recombinant, biotinylated) (P20138 other isoform, or with tags, fused parts or gaps W22T W22T): as the sequence (P20138 other isoform, or with tags, fused parts or gaps Y50K Y50K) above, with W11T, K39Y counted along it
Chain of CD33 variant Y50D (recombinant, biotinylated) (P20138 other isoform, or with tags, fused parts or gaps Y50D Y50D): as the sequence (P20138 other isoform, or with tags, fused parts or gaps Y50K Y50K) above, with K39D counted along it
Chain of CD33 variant N20H (recombinant, biotinylated) (P20138 other isoform, or with tags, fused parts or gaps N20H N20H): as the sequence (P20138 other isoform, or with tags, fused parts or gaps Y50K Y50K) above, with N9H, K39Y counted along it
Chain of CD33 variant F44P (recombinant, biotinylated) (P20138 other isoform, or with tags, fused parts or gaps F44P F44P): as the sequence (P20138 other isoform, or with tags, fused parts or gaps Y50K Y50K) above, with F33P, K39Y counted along it
Chain of CD33 variant N20E (recombinant, biotinylated) (P20138 other isoform, or with tags, fused parts or gaps N20E N20E): as the sequence (P20138 other isoform, or with tags, fused parts or gaps Y50K Y50K) above, with N9E, K39Y counted along it
Chain of CD33 variant F21V (recombinant, biotinylated) (P20138 other isoform, or with tags, fused parts or gaps F21V F21V): as the sequence (P20138 other isoform, or with tags, fused parts or gaps Y50K Y50K) above, with F10V, K39Y counted along it
Chain of CD33 variant F21L (recombinant, biotinylated) (P20138 other isoform, or with tags, fused parts or gaps F21L F21L): as the sequence (P20138 other isoform, or with tags, fused parts or gaps Y50K Y50K) above, with F10L, K39Y counted along it

% WT binding [1]: 0 % WT binding
% WT binding [2]: 22.4 % WT binding
% WT binding [3]: 29.3 % WT binding
% WT binding [4]: 37.5 % WT binding
% WT binding [5]: 12.2 % WT binding
% WT binding [6]: 9.44 % WT binding
% WT binding [7]: 5.59 % WT binding
% WT binding [8]: 67.5 % WT binding
% WT binding [9]: 100 % WT binding
% WT binding [10]: 0 % WT binding
% WT binding [11]: 6.79 % WT binding
% WT binding [12]: 5.41 % WT binding
% WT binding [13]: 51.9 % WT binding
% WT binding [14]: 6.62 % WT binding
% WT binding [15]: 131 % WT binding
% WT binding [16]: 12.7 % WT binding
% WT binding [17]: 9.03 % WT binding
% WT binding [18]: 10.4 % WT binding
% WT binding [19]: 108 % WT binding
% WT binding [20]: 2 % WT binding
% WT binding [21]: 0 % WT binding
% WT binding [22]: 32.9 % WT binding
% WT binding [23]: 95.8 % WT binding
% WT binding [24]: 86.6 % WT binding
B1: Refmab #1 (antibody, human IgG1, V domains shown)
VH: EVQLVQSGAEVKKPGSSVKVSCKASGYTITDSNIHWVRQAPGQSLEWIGYIYPYNGGTDYNQKFKNRATLTVDNPTNTAYMELSSLRSEDTAFYYCVNGNPWLAYWGQGTLVTVSS
VL: DIQLTQSPSTLSASVGDRVTITCRASESLDNYGIRFLTWFQQKPGKAPKLLMYAASNQGSGVPSRFSGSGSGTEFTLTISSLQPDDFATYYCQQTKEVPWSFGQGTKVEVK
notes: also called hP67.6; Absolute Antibody Cat. No. Ab00283-10.0
